Laboratory results reported in patent US20210054088A1.

Tests used:
FcγRI = FcγRI (UniProt P12314); assay: MSD assay, Fcγ receptor coated
FcγRIIIa(F) = FcγRIIIa(F) (UniProt P08637); assay: MSD assay, Fcγ receptor coated
FcγRIIIa(V) = FcγRIIIa(V) (UniProt P08637); assay: MSD assay, Fcγ receptor coated
FcγRIIa(H) = FcγRIIa(H) (UniProt P12318); assay: MSD assay, Fcγ receptor coated
FcγRIIb = FcγRIIb (UniProt P31994); assay: MSD assay, Fcγ receptor coated
Human C1q (human) = Human C1q (human) (UniProt P02745); assay: ELISA, antibody coated, human C1q added
Human C1q (human), sequence (P02745 23-245 limits assumed, chain 1 of 3): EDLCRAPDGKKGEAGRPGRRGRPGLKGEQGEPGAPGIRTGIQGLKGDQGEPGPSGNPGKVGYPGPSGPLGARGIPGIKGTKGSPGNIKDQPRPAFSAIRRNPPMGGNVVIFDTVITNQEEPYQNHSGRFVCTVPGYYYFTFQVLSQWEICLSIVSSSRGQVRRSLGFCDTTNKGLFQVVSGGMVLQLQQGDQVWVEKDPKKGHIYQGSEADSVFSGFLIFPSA
Human C1q (human), sequence (P02746 28-253 limits assumed, chain 2 of 3, further chain): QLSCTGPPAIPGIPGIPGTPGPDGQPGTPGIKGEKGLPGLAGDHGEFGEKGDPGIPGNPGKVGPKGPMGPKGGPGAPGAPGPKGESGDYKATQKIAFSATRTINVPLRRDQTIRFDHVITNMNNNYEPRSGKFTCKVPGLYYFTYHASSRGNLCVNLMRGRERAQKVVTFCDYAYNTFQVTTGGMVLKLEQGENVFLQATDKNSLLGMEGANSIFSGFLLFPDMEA
Human C1q (human), sequence (P02747 29-245 limits assumed, chain 3 of 3, further chain): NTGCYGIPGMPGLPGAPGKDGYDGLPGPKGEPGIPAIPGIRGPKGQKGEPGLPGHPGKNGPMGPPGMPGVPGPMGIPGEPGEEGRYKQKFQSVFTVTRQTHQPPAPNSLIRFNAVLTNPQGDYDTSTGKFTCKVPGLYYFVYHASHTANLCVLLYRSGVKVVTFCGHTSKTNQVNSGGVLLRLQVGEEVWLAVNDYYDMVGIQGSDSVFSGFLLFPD

FcγRIIa(H), sequence (P12318 36-218 limits assumed): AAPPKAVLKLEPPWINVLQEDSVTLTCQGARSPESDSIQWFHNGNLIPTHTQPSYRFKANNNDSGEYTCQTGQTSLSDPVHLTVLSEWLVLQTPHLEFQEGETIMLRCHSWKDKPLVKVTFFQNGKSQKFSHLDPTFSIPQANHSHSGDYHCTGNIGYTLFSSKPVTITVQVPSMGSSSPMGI
FcγRIIIa(F), sequence (P08637 17-208 limits assumed): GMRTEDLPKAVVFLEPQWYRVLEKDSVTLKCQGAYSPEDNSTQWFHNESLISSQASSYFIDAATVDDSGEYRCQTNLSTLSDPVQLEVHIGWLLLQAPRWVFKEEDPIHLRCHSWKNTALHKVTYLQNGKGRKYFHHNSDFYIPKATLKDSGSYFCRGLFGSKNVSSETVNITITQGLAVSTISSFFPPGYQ
FcγRIIIa(V), sequence (P08637 17-208 F176V limits assumed): as the sequence (P08637 17-208 limits assumed) above, with F160V counted along it
FcγRIIb, sequence (P31994 43-217 limits assumed): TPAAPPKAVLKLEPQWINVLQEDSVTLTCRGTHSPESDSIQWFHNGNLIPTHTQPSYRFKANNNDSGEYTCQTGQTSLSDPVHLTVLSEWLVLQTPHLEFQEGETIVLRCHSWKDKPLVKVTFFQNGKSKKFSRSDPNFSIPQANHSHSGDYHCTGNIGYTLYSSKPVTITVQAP
FcγRI, sequence (P12314 16-288 limits assumed): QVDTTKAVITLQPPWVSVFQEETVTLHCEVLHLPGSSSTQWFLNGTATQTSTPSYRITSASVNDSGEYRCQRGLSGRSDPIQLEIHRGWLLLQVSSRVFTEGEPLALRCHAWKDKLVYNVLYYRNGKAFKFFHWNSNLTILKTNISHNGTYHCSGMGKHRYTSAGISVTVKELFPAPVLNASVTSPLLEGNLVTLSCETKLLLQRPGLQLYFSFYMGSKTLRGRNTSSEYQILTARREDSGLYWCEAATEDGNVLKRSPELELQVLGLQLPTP

Substance: Positive Control IgG1 (Intact Fc receptor effector functionality) (antibody)
- EC50 (FcγRI): 0.8 nM
- EC50 (FcγRIIIa(F)): 19 nM
- EC50 (FcγRIIIa(V)): 6.2 nM
- EC50 (FcγRIIa(H)): 93.7 nM
- EC50 (FcγRIIb): > 134 nM
- EC50 (Human C1q (human)): 8.9 nM
